B1: TAT-11 decoy peptide (MSI1 peptide 11 with HIV-1 Tat (48-60) cell-penetrating peptide) (peptide)
peptide: YQFPEFRVERTPLPSGRKKRRQRRRPPQ
modifications: not checked
B2: TAT-26 decoy peptide (MSI1 peptide 26 with HIV-1 Tat (48-60) cell-penetrating peptide) (peptide)
peptide: HSLGGPLIATAFTNGGRKKRRQRRRPPQ
modifications: not checked

What was measured:
[1] = target: T1, recombinant His-tagged AGO2 protein (human Argonaute 2, baculovirus-expressed) (human), Q9UKV8
[2] = target: T1, recombinant His-tagged AGO2 protein …; test: TAT-11 peptide
[3] = target: T1, recombinant His-tagged AGO2 protein …; test: TAT-26 peptide

T1 sequence (Q9UKV8 other isoform, or with tags, fused parts or gaps limits assumed): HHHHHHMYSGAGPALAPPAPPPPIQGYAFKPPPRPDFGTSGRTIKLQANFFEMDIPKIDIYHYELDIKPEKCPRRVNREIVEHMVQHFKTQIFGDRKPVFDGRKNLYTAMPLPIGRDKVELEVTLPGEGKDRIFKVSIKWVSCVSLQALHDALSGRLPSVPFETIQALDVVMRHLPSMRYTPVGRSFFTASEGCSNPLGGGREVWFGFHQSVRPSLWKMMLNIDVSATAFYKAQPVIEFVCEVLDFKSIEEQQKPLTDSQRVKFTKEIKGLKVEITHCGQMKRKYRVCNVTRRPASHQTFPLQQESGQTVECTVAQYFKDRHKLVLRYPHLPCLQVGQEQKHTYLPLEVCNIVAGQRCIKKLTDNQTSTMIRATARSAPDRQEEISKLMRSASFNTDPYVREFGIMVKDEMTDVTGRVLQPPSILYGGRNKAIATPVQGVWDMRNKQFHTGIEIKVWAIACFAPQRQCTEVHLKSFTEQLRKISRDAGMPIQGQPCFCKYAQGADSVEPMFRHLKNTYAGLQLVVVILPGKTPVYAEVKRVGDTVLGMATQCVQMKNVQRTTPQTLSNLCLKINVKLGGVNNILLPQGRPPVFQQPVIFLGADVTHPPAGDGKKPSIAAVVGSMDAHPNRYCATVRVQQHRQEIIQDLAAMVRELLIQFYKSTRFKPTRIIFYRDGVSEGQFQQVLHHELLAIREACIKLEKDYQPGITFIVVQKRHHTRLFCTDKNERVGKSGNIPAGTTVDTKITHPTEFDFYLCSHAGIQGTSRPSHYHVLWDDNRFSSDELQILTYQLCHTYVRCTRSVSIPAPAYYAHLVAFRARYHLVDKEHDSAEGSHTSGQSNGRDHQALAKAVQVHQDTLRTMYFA

Row | Binder | koff [1] [s⁻¹] | kon [1] [M⁻¹ s⁻¹] | Kd [2] [µM] | Kd [3] [µM]
1 | B1 | 0.00274 | 823 | 3.33 | –
2 | B2 | 0.00226 | 488 | – | 4.63

Source: patent US20200078441A1
